Target: recombinant extracellular domain of rabies virus glycoprotein (RABVG, CVS strain) with T4 fibritin t (rabies virus (CVS strain))
Assay: SEC; rRABVG on Superdex 200 10/300 GL after HisTrap; single peak

Q: With “recombinant extracellular domain of rabies virus glycoprotein (RABVG, CVS strain) with T4 fibritin t (domain or fragment)” as the substance, how does the stoichiometry N read?
A: The stoichiometry N was 3.
